The target in test [1] is recombinant human BCMA-his fusion protein (ACRO Biosystem, Cat. No. BCA-H522y) (human) (UniProt Q02223). Kind of test: ELISA, coated antigen.
For test [2], the target named is human BCMA on cells (NCI-H929, U266B1, HEK293 huBCMA) (human) (UniProt Q02223). Kind of test: flow cytometry on NCI-H929 cells.
The target of test [3] is recombinant human BCMA-his fusion protein (ACRO Biosystem, Cat. No. BCA-H522y) (human) (UniProt Q02223). Kind of test: competitive ELISA, coated huBCMA-his, competitor 83A10-biotin.
The target is the same in test [4]. The description is as above. This is another data set of the same source.

From US20240117061A1 come the findings set out here.

Like-named read-outs stand apart in the source and are kept apart here.

Chain of positive control antibody 83A10 (VH): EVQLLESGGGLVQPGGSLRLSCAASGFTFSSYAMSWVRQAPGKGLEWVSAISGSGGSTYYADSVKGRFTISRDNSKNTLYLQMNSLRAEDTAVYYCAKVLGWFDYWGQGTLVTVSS
Chain of positive control antibody 83A10 (VL): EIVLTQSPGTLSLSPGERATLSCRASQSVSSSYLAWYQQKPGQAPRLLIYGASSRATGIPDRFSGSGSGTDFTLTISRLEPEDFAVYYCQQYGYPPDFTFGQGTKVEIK
Chain of recombinant human BCMA-his fusion protein (ACRO Biosystem, Cat. No. BCA-H522y) (human) (Q02223 1-54): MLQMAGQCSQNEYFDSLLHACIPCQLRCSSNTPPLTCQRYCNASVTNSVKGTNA
Chain of human BCMA on cells (NCI-H929, U266B1, HEK293 huBCMA) (human) (Q02223 whole entry, the tested form may be a part): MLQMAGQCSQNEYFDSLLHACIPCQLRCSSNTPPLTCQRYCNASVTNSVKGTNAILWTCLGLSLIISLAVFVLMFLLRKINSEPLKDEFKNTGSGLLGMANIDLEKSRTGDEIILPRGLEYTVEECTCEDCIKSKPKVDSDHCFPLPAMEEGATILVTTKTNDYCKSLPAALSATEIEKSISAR

Consider positive control antibody 83A10, for which the results for the EC50 in test [1] and in test [2] were 0.0253 nM and 8.69 nM, respectively. Also, the IC50 was 15 µg/mL in test [3] and 9.8 µg/mL in test [4].
